Values of other authors as cited in PMC10775509.
Read-outs that look alike come from different tables or passages of the source.

Columns and labels:
TREM-1 (Mus musculus) [1] = target: TREM-1 (Mus musculus) (UniProt Q9JKE2)
TREM-1 (Mus musculus) [2] = target: TREM-1 (Mus musculus) (UniProt Q9JKE2); remark: listed apart in the source

Chain of UniProt Q9JKE2 (Q9JKE2 21-230): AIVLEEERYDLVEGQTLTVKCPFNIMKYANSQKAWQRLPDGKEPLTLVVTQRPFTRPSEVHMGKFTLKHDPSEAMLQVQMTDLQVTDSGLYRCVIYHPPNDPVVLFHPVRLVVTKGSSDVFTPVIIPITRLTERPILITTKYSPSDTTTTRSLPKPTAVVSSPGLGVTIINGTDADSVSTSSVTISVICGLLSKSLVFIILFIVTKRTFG

Substance: CIRP (from UniProt P60824)
- Kd (TREM-1 (Mus musculus) [1]): 0.117 µM

Substance: HMGB1 (from UniProt P63158)
- Kd (TREM-1 (Mus musculus) [2]): 35.4 µM
